Target: dSpCas9 (catalytically inert dCas9) (UniProt Q99ZW2)
Assay: MST

Chain of UniProt Q99ZW2 (Q99ZW2 whole entry): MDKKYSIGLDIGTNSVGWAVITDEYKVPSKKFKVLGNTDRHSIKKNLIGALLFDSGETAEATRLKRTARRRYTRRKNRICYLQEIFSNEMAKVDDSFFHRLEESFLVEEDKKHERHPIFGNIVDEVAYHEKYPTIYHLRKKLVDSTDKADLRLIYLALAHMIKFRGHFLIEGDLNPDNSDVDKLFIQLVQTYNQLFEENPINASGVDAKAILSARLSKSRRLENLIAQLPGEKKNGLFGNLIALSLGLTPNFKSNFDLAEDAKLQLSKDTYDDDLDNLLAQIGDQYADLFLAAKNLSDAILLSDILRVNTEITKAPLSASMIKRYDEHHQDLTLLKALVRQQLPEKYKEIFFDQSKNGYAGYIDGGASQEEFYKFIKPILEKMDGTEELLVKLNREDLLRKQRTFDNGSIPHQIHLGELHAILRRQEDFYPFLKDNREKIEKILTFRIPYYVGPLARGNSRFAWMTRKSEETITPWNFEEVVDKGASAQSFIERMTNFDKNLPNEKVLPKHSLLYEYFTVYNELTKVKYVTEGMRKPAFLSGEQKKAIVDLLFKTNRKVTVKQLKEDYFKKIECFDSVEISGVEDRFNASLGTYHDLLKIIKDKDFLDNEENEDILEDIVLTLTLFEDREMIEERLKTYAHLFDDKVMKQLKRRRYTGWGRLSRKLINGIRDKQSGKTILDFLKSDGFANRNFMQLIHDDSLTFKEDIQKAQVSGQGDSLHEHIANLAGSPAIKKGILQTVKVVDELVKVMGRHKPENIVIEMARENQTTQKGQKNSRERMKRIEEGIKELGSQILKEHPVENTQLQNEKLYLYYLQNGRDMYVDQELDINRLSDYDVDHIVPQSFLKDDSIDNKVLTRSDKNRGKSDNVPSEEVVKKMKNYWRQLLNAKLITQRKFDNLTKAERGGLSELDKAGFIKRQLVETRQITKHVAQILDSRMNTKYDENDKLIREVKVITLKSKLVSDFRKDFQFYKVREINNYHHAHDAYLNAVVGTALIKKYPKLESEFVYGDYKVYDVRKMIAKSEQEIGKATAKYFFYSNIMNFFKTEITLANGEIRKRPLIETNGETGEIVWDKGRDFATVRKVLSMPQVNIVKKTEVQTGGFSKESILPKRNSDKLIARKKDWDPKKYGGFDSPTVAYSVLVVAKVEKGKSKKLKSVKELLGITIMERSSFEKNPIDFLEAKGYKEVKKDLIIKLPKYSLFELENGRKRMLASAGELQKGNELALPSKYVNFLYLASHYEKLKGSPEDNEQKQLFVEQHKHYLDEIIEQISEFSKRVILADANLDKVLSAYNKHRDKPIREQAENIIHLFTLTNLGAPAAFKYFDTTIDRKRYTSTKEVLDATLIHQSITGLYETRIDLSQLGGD

| Sequence | Kd [nM] |
| --- | --- |
| GGCCCAGACTGAGCACGTGAGTTTTAGAGCTAGAAATAGCAAGTTAAAATAAGGCTAGTCCGTTATCAACTTGAAAAAGTGGCACCGAGTCGGTGCTGGAGGAAGCAGGGCTTCCTTTCCTCTGCCATCACTTATCGTCGTCATCCTTGTAATCCGTGCTCAGTCTGTTTTTT [unmodified pegRNA (guide) + HEK3 dsDNA target] | 8.1 |
| GGCCCAGACTGAGCACGTGAGTTTTAGAGCTAGAAATAGCAAGTTAAAATAAGGCTAGTCCGTTATCAACTTGAAAAAGTGGCACCGAGTCGGTGCTGGAGGAAGCAGGGCTTCCTTTCCTCTGCCATCACTTATCGTCGTCATCCTTGTAATCCGTGCTCAGTCTGTCTCTCTCTTGACGCGGTTCTATCTAGTTACGCGTTAAACCAACTAGAAATTTTTT [evopreQ1 epegRNA (guide) + HEK3 dsDNA target] | 10 |
